Measured values from PMC7111274.

Assays:
Experiment in all cases: SEC
[1] = target: PEDV 3CL^pro variant R294A (porcine epidemic diarrhea virus (FJZZ strain))
[2] = target: PEDV 3CL^pro variant S138A (porcine epidemic diarrhea virus (FJZZ strain))
[3] = target: PEDV 3CL^pro variant R4A (porcine epidemic diarrhea virus (FJZZ strain))
[4] = target: PEDV 3CL^pro variant Q295A (porcine epidemic diarrhea virus (FJZZ strain))

PEDV 3CL^pro variant R294A (enzyme)
stoichiometry N [1]: 2

PEDV 3CL^pro variant S138A (enzyme)
stoichiometry N [2]: 2

PEDV 3CL^pro variant R4A (enzyme)
stoichiometry N [3]: 2

PEDV 3CL^pro variant Q295A (enzyme)
stoichiometry N [4]: 2
